The assay deals with HLA-A*02:01 (Homo sapiens, UniProt P04439, D140Y/D185E/D98H/E176V/E277Q/G131W/G231S/I119V/I121R/I166T/I218V/L300P/L318F/N151K/N90K/P208A/P217A/Q86G/Q94H/R138H/R169H/T345S). The assay can be described thus: MHC binding assay (UV-ligand exchange, beta2m ELISA, peptide exchange yield). To be noted: binding to HLA-A*02:01. From the text: Candidate peptides for T cell based therapies according to the present invention were further tested for their MHC binding capacity (affinity). The individual peptide-MHC complexes were produced by UV-ligand exchange, where a UV-sensitive peptide is cleaved upon UV-irradiation, and exchanged with the peptide of interest as analyzed. Only peptide candidates that can effectively bind and stabilize the peptide-receptive MHC molecules prevent dissociation of the MHC complexes. To determine the yield of the exchange reaction, an ELISA was performed based on the detection of the light chain ([…]) of stabilized MHC complexes. The assay was performed as generally described in Rodenko et al. (Rodenko et al., 2006).
96 well MAXISorp plates (NUNC) were coated over night with 2 ug/ml streptavidin in PBS at room temperature, washed 4× and blocked for 1 h at 37° C. in 2% BSA containing blocking buffer. Refolded HLA-A*02:01/MLA-001 monomers served as standards, covering the range of 15-500 ng/ml. Peptide-MHC monomers of the UV-exchange reaction were diluted 100 fold in blocking buffer. Samples were incubated for 1 h at 37° C., washed four times, incubated with 2 ug/ml HRP conjugated anti-β2m for 1 h at 37° C., washed again and detected with TMB solution that is stopped with […]. Absorption was measured at 450 nm. Candidate peptides that show a high exchange yield (preferably higher than 50%, most preferred higher than 75%) are generally preferred for a generation and production of antibodies or fragments thereof, and/or T cell receptors or fragments thereof, as they show sufficient avidity to the MHC molecules and prevent dissociation of the MHC complexes.

For the substance “4 (RLAELTVDEFL; listed as Homo sapiens) [compound 4]”, the “Peptide exchange (MHC class I binding score, peptide exchange yield)” value (“Peptide exchange” for short) is on record as ““+++” (≥50 = +++)”.

As for “6 (FLAELPGSLSL; listed as Homo sapiens) [compound 6]”, the “Peptide exchange” value is listed as ““+++” (≥50 = +++)”.

Turning to “8 (ALMLQGVDLL; listed as Homo sapiens) [compound 8]”, the “Peptide exchange” value was ““+++” (≥50 = +++)”.

For “14 (FLDKPEDVLL; listed as Homo sapiens) [compound 14]”, the “Peptide exchange” value was ““++” (≥20% = ++)”.

Take “15 (LQLDKEFQL; listed as Homo sapiens) [compound 15]”: the “Peptide exchange” value is listed as ““+++” (≥50 = +++)”.

Regarding “16 (VLVDQSWVL; listed as Homo sapiens) [compound 16]”, the “Peptide exchange” value is listed as ““+++” (≥50 = +++)”.

Take “20 (YLKDGDVML; listed as Homo sapiens) [compound 20]”: the “Peptide exchange” value was ““+++” (≥50 = +++)”.

Take “23 (FLDANGHFV; listed as Homo sapiens) [compound 23]”: the “Peptide exchange” value was ““+++” (≥50 = +++)”.

Take “24 (VLDGVLMEL; listed as Homo sapiens) [compound 24]”: the “Peptide exchange” value is listed as ““+++” (≥50 = +++)”.

Regarding “25 (SLADRLIGV; listed as Homo sapiens) [compound 25]”, the “Peptide exchange” value is recorded as ““++++” (≥75% = ++++)”.

As to “26 (GLASKENFSNVSL; listed as Homo sapiens) [compound 26]”, the “Peptide exchange” value was ““++” (≥20% = ++)”.

As for “27 (LLADEDSSYL; listed as Homo sapiens) [compound 27]”, the “Peptide exchange” value was ““++” (≥20% = ++)”.

As for “28 (ALTEIQEFI; listed as Homo sapiens) [compound 28]”, the “Peptide exchange” value is ““++++” (≥75% = ++++)”.

Consider “29 (QMLDVAIRV; listed as Homo sapiens) [compound 29]”, for which the “Peptide exchange” value is ““+++” (≥50 = +++)”.

Turning to “30 (GLSSAYGGL; listed as Homo sapiens) [compound 30]”, the “Peptide exchange” value is recorded as ““+” (≥10% = +)”.

With “33 (ALWEKNTHL; listed as Homo sapiens) [compound 33]”, the “Peptide exchange” value was ““+++” (≥50 = +++)”.

As to “34 (ILLEKSVSV; listed as Homo sapiens) [compound 34]”, the “Peptide exchange” value is on record as ““+++” (≥50 = +++)”.

Regarding “35 (KLLDLTVRI; listed as Homo sapiens) [compound 35]”, the “Peptide exchange” value is ““+++” (≥50 = +++)”.

Take “36 (GLLESPSIFNFTA; listed as Homo sapiens) [compound 36]”: the “Peptide exchange” value is ““+++” (≥50 = +++)”.

Turning to “40 (ALSNVIHKV; listed as Homo sapiens) [compound 40]”, the “Peptide exchange” value was ““++” (≥20% = ++)”.

Regarding “41 (ILDDSFKLL; listed as Homo sapiens) [compound 41]”, the “Peptide exchange” value was ““++” (≥20% = ++)”.

For the substance “43 (TLDAAQPRV; listed as Homo sapiens) [compound 43]”, the “Peptide exchange” value is ““++” (≥20% = ++)”.

On to “44 (SLESKLTSV; listed as Homo sapiens) [compound 44]”, for which the “Peptide exchange” value was ““+++” (≥50 = +++)”.

As for “45 (ALAELLHGA; listed as Homo sapiens) [compound 45]”, the “Peptide exchange” value is reported as ““+++” (≥50 = +++)”.

For “46 (GLDDRYSLV; listed as Homo sapiens) [compound 46]”, the “Peptide exchange” value was ““+++” (≥50 = +++)”.

“48 (FLDASDPAL; listed as Homo sapiens) [compound 48]”: the “Peptide exchange” value is ““++” (≥20% = ++)”.

For “50 (TLMAEMHVV; listed as Homo sapiens) [compound 50]”, the “Peptide exchange” value is reported as ““+++” (≥50 = +++)”.

For “51 (QVWEIQHTV; listed as Homo sapiens) [compound 51]”, the “Peptide exchange” value was ““++” (≥20% = ++)”.

Regarding “52 (ALDSSNSMQTI; listed as Homo sapiens) [compound 52]”, the “Peptide exchange” value is ““++” (≥20% = ++)”.

For “53 (FLLGSEIKL; listed as Homo sapiens) [compound 53]”, the “Peptide exchange” value is reported as ““+++” (≥50 = +++)”.

Turning to “54 (ALLNGEYLLAA; listed as Homo sapiens) [compound 54]”, the “Peptide exchange” value is ““+++” (≥50 = +++)”.

In the case of “56 (VLFTDEGVPKFL; listed as Homo sapiens) [compound 56]”, the “Peptide exchange” value is recorded as ““++” (≥20% = ++)”.

For “57 (NLLEKENYL; listed as Homo sapiens) [compound 57]”, the “Peptide exchange” value was ““+++” (≥50 = +++)”.

With “58 (AMADKMDMSL; listed as Homo sapiens) [compound 58]”, the “Peptide exchange” value is listed as ““++” (≥20% = ++)”.

As to “60 (VLDEDEPRFL; listed as Homo sapiens) [compound 60]”, the “Peptide exchange” value is listed as ““++” (≥20% = ++)”.

Consider “61 (KLLKLFQGV; listed as Homo sapiens) [compound 61]”, for which the “Peptide exchange” value is ““+++” (≥50 = +++)”.

Regarding “62 (YLAPENGYL; listed as Homo sapiens) [compound 62]”, the “Peptide exchange” value was ““++” (≥20% = ++)”.

As for “63 (KLFSILSTV; listed as Homo sapiens) [compound 63]”, the “Peptide exchange” value is on record as ““++” (≥20% = ++)”.

On to “66 (GLDDGPDFL; listed as Homo sapiens) [compound 66]”, for which the “Peptide exchange” value was ““++” (≥20% = ++)”.

“67 (SLNDLEKDVMLL; listed as Homo sapiens) [compound 67]”: the “Peptide exchange” value is reported as ““+++” (≥50 = +++)”.

For the substance “68 (SILQFVHMV; listed as Homo sapiens) [compound 68]”, the “Peptide exchange” value is ““+++” (≥50 = +++)”.

With “69 (GMLNEAEGKAIKL; listed as Homo sapiens) [compound 69]”, the “Peptide exchange” value is ““++” (≥20% = ++)”.

Consider “70 (MISELEVRL; listed as Homo sapiens) [compound 70]”, for which the “Peptide exchange” value was ““+++” (≥50 = +++)”.

On to “71 (RLWTEIPTAI; listed as Homo sapiens) [compound 71]”, for which the “Peptide exchange” value is ““+++” (≥50 = +++)”.

“72 (YLLDYPNNLL; listed as Homo sapiens) [compound 72]”: the “Peptide exchange” value is given as ““+++” (≥50 = +++)”.

In the case of “73 (YLFDIAVSM; listed as Homo sapiens) [compound 73]”, the “Peptide exchange” value is given as ““+++” (≥50 = +++)”.

As for “74 (YLMGFLHAV; listed as Homo sapiens) [compound 74]”, the “Peptide exchange” value is on record as ““+++” (≥50 = +++)”.

“75 (EMIENIQSV; listed as Homo sapiens) [compound 75]”: the “Peptide exchange” value is ““++” (≥20% = ++)”.

For “76 (YLIGEKQHYL; listed as Homo sapiens) [compound 76]”, the “Peptide exchange” value is ““+++” (≥50 = +++)”.

On to “77 (SLLKRDFGA; listed as Homo sapiens) [compound 77]”, for which the “Peptide exchange” value is on record as ““++” (≥20% = ++)”.

Regarding “78 (ALDPELLLL; listed as Homo sapiens) [compound 78]”, the “Peptide exchange” value is ““++” (≥20% = ++)”.

For the substance “79 (SLAADQLLKL; listed as Homo sapiens) [compound 79]”, the “Peptide exchange” value is ““++” (≥20% = ++)”.

In the case of “80 (QVDEVVDIMRV; listed as Homo sapiens) [compound 80]”, the “Peptide exchange” value is given as ““++” (≥20% = ++)”.

For “81 (ALLSQQTHL; listed as Homo sapiens) [compound 81]”, the “Peptide exchange” value was ““+++” (≥50 = +++)”.

For the substance “82 (QLYEEPDTKL; listed as Homo sapiens) [compound 82]”, the “Peptide exchange” value is on record as ““++” (≥20% = ++)”.

Take “83 (LTIEDGIFEV; listed as Homo sapiens) [compound 83]”: the “Peptide exchange” value was ““+++” (≥50 = +++)”.

For “84 (SMVEDITGLRL; listed as Homo sapiens) [compound 84]”, the “Peptide exchange” value was ““+++” (≥50 = +++)”.

(Values after US10513547B2, “Peptides and combination of peptides and scaffolds thereof for use in immunotherapy against colorectal carcinoma (CRC) and other cancers” (Immatics Biotechnologies GmbH, priority 2015, dated 2019).)
